Measured values published in paper PMC6398482.

Target: Taxol-stabilised microtubules of Rhodamine-labelled tubulin (porcine) (UniProt P02550)
Assay: confocal microscopy of purified proteins; Taxol-stabilised MT seeds incubated with GFP–PLK4 (1 µM) for 15 min at 37°C, mounted on a slide; condensates associated with MTs counted (N=3, n=100 spots/condition)

percent of PLK4 condensates associated with MTs: 95.4%
B1: GFP-tagged Xenopus PLK4 (wild type) (enzyme)
chain: MAGSIGERREDFKVLNLLGKGSFACVYRAQSINTGIDVAIKMIDKKAMQKVGMVQRVRNEVEIHCQLKHPSILELYNYFEDSNYVYLILEMCHNGEVNRYLKNRKKPFAEDEARHFMHQIVTGMLYLHSHGILHRDLTLSNLLLSSDMNIKIADFGLATQLKMPNEKHFTMCGTPNYIAPEIATRSAHGLESDVWSLGCMLYTFLVGRPPFDTDTVKNTLNKIVLADYEMPDFVSREAKDLIFQLLRKNPADRLSLSSVLDHAFMTGFSNVQSKVMGAVEDSMDSGHATISTGFTGSSGVSISGRFQEKRILSGPSLPNKVNIFQFKDKHPTERSNGGSFHNTQRENNDFSEGNGRKPVACEDRPHSRYLRRAHSSDRSGTSQSQTYAKPSSYSERCHSVEMLAKPTHLKGYRTSSPPNSYGDIPQMFTDERSLERHTSPPVKEKTPSEFMGPAKQTAPRSNDKAETVQQWFGAMQLNGQFKNTPDTSSVSNMGGDFYSQQATQNGAPQYAWNDVKRKKNTDSSIESVLLGIKKNPGTGQRKAEKSQFGEQSKSRVPQQAFGSSTLRSIISPLNAERLKPIRQKTKNAVVSILESGEVCMEFLKEQNSQERVKEVLRISCDGNLIYVYHPNEGKGFPLVDRPPSPPENRLSYTFDSLPEKYWKKYQYAAKFIKLVRSKTPKVTYYTRYAKCMLMENSPTADVEVCFYDGAKIHKTSDVIRVIEKSGRSYTLEGSRLSTLSDEVRSYLDHANESHCVCLSLESAINTEEKKGENISLFPITFGRRPALAESPKTQPTPSVDSARERKEEQSYVNRVLHGSAASPPQMPNLNPSLISYDGSVFSATTVQPSPTSNIHNTPDHAQVLKSVFVENVGWASQLNSGAVWVQFNDGSQLVVQPGVSSIIYTAPNGQITRHGENDKLPEYIKSKLQCLSSILMLFASSSSR
